{
  "source": "the supplement of paper PMC9170038",
  "data": [
    {"tested_on": "MS2 coat protein", "assay": "apparent KD of MS2 coat protein; higher = weaker reporter binding", "settings": "Eterna round: R107; input ligand: arginine 13.2 mM", "protocol": "(§1)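 RNA-MaP round R107: designed RNA switches with theophylline, tryptophan, arginine or FMN aptamers are transcribed on-chip within common flanks. They are titrated with SNAP-549-labelled MS2 coat protein in RNA-MaP buffer (100 mM Tris pH 7.5, 80 mM KCl, 4 mM MgCl2), without ligand or with the indicated ligand. Median apparent KD per design.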", "units": {"apparent KD of MS2 coat protein": "nM"}, "values": [
      {"sequence": "CCGGCGCGAUUAUGGGUUUGCUUUUACGAUACCAGCCGCGUUCCGGGCCCUUGGCAGCGUGUAACAUGAGGAUCACCCAUGUUCA [theeternabot_exclusion_MS2_Theo_A_37]", "apparent KD of MS2 coat protein": 9.81},
      {"sequence": "UGACAUGAGGAUCACCCAUGUAUAACUGAAGGAGCGUCCAUAAGGACAGGUAGGUCGCGGAAUGAACAGAGUGCACGACAUGUUU [Arg A SS t1]", "apparent KD of MS2 coat protein": 12.8},
      {"sequence": "UUAUGAUGUUCCGAUACCAGCCAUGUAGUUCUAACUUAACAUGAGGAUCACCCAUGUACCGGCCCUUGGCAGCGGAUGUGGAUUA [#22Same State - Theophylline B]", "apparent KD of MS2 coat protein": 27},
      {"sequence": "AACAUGAGCACGGCCGCCACUCCAUGAACAUGAGGAUCACCCAUACACAUGAGGAUCACCCAUGUGAGGACCGGGUGUCCAUGUG [Exclusion Tryptophan B 2]", "apparent KD of MS2 coat protein": 12.6},
      {"sequence": "UAAAACAUGAGGAUCACCCAUGUAAUUGAUACCAGAGUGAUGAUCCUCCCUUGGCAGCAAAACGCUGAUUGAUUACAAUCAGCGA [Mat - Same State Theophlline A - Mod of Eli - D24]", "apparent KD of MS2 coat protein": 36.8},
      {"sequence": "UCAGAUGAGGCGGCCGCCACUCGCGGAUAACGAUAGAUUAACAUGAGGAUCACCCAUGUGUCAUGGAGGACCGGGCCCAUGACAU [kjmullin]", "apparent KD of MS2 coat protein": 23.8},
      {"sequence": "AAUCGCCUGGGUCGCAUCCUUGCUCCGGAUACCAGUCAAUAGUUGGACCCUUGGCAGCCGUAGACAUGAGGAUCACCCAUGUAUA [theeternabot_exclusion_MS2_Theo_A_42]", "apparent KD of MS2 coat protein": 30.2},
      {"sequence": "AUAUAUACAUGAGGAUCACCCAUGUUAUUUCGAGGACCGGUACGGCCGCCACUCGAUAGAGUAGAAGUAAAUUUUGUUACAUGUA [JR_SSTryptoA_Sub010]", "apparent KD of MS2 coat protein": 10.4},
      {"sequence": "UUAAUUAUAUAUUAUUUAAUAUUUACAGAAGGAGCGUGAUAAAACACAGGUAGGUCGCUGAAGGGAACAUGAGGAUCACCCAUGU [AstrosSSArgA#20]", "apparent KD of MS2 coat protein": 28.6},
      {"sequence": "AGAGUCUAGUCGGCCGCCACUCAUGUCCAAUGGACAUGAGGAUCACCCAUGUACCAAAGGUACAUGAGGACCGGGACUGGACUCA [Omei Tryp B SS C v4]", "apparent KD of MS2 coat protein": 27.2},
      {"sequence": "UUAAUCUAUGAAGAAAACUUUAUAGCAGAAGGAGCGUGAUAAAACACAGGUAGGUCGCUGAAGGGAACAUGAGGAUCACCCAUGU [AstrosSSArgA#19]", "apparent KD of MS2 coat protein": 23.7},
      {"sequence": "UAUAUAUAGAUGGAUACCAGCAGAGAAAACGUUUAUCCUAACAUGAGGAUCACCCAUGUAUGCCCUUGGCAGCUGUUUAUAUAUA [8.I]", "apparent KD of MS2 coat protein": 18.9},
      {"sequence": "GGACUAACCAGAAGGAGCGGCACAAAGCAGAAACUGCAUCCUCCGCACGAGGAUCACCCGUGUCAGGUAGGUCGCUGGUUAGUCG [ArgBX 28]", "apparent KD of MS2 coat protein": 46.2},
      {"sequence": "ACGUCAUGGAGAACGUGACGACUUAUCGAUACCAGCGAUUGAGAGCGCCCUUGGCAGCGAACAUGAGGAUCACCCAUGUCAAGGG [Same State - Theophylline A]", "apparent KD of MS2 coat protein": 29.1},
      {"sequence": "GCCUCCAGCCGAAGGAGCGCUAGAAGGUGACAUGAGGAUCACCCAUGUGUGUGAUGUGGCUAGCAGGUAGGUCGCGGAGGAGGUU [Exclusion - Arginine B (Freestyle 20)]", "apparent KD of MS2 coat protein": 62.7},
      {"sequence": "UUUGAUAGAACAGAUACCAGCGUGUUAUAAAACAUGAGGAUCACCCAUGUAGUGAUCAAGCGCCCUUGGCAGCUGGUUUGUUAGG [7.I]", "apparent KD of MS2 coat protein": 76.4},
      {"sequence": "GGCUAUACUACGGCCGCCACUGAACAUGAGGAUCACCCAUGUAAUGUUCAGAUUUUUUUUUUUUACAGGACCGGGUAGAAUUGCC [Tryptophan B 3]", "apparent KD of MS2 coat protein": 82.6},
      {"sequence": "GUCCUCAGCCGAAGGAGCGCUAGAAGAUGACAUGAGGAUCACCCAUGUGUGUGAUGUGGCUAGCAGGUAGGUCGCGGAGAGGAUU [Exclusion - Arginine B (Freestyle 16)]", "apparent KD of MS2 coat protein": 19.8},
      {"sequence": "GGUGGCGUGACGGAUACCAGCCACCGCCGCAAGGCAACAUGAGGAUCACCCAUGUUGGGUGGCCCUUGGCAGCUGUCGUGCGGCG [#1 Same State - Theophylline B Attempt #22 (HarryS)]", "apparent KD of MS2 coat protein": 13.3}
    ]},
    {"tested_on": "MS2 coat protein", "assay": "apparent KD of MS2 coat protein; higher = weaker reporter binding", "settings": "Eterna round: R107; input ligand: none", "protocol": "as §1", "units": {"apparent KD of MS2 coat protein": "nM"}, "values": [
      {"sequence": "UGACAUGAGGAUCACCCAUGUAUAACUGAAGGAGCGUCCAUAAGGACAGGUAGGUCGCGGAAUGAACAGAGUGCACGACAUGUUU [Arg A SS t1]", "apparent KD of MS2 coat protein": 13.3},
      {"sequence": "UUAUGAUGUUCCGAUACCAGCCAUGUAGUUCUAACUUAACAUGAGGAUCACCCAUGUACCGGCCCUUGGCAGCGGAUGUGGAUUA [#22Same State - Theophylline B]", "apparent KD of MS2 coat protein": 23.4},
      {"sequence": "UUAAUUAUAUAUUAUUUAAUAUUUACAGAAGGAGCGUGAUAAAACACAGGUAGGUCGCUGAAGGGAACAUGAGGAUCACCCAUGU [AstrosSSArgA#20]", "apparent KD of MS2 coat protein": 28.9},
      {"sequence": "UUAAUCUAUGAAGAAAACUUUAUAGCAGAAGGAGCGUGAUAAAACACAGGUAGGUCGCUGAAGGGAACAUGAGGAUCACCCAUGU [AstrosSSArgA#19]", "apparent KD of MS2 coat protein": 22.7},
      {"sequence": "GGACUAACCAGAAGGAGCGGCACAAAGCAGAAACUGCAUCCUCCGCACGAGGAUCACCCGUGUCAGGUAGGUCGCUGGUUAGUCG [ArgBX 28]", "apparent KD of MS2 coat protein": 57.5},
      {"sequence": "GCCUCCAGCCGAAGGAGCGCUAGAAGGUGACAUGAGGAUCACCCAUGUGUGUGAUGUGGCUAGCAGGUAGGUCGCGGAGGAGGUU [Exclusion - Arginine B (Freestyle 20)]", "apparent KD of MS2 coat protein": 68.5},
      {"sequence": "GUCCUCAGCCGAAGGAGCGCUAGAAGAUGACAUGAGGAUCACCCAUGUGUGUGAUGUGGCUAGCAGGUAGGUCGCGGAGAGGAUU [Exclusion - Arginine B (Freestyle 16)]", "apparent KD of MS2 coat protein": 22.9},
      {"sequence": "GGUGGCGUGACGGAUACCAGCCACCGCCGCAAGGCAACAUGAGGAUCACCCAUGUUGGGUGGCCCUUGGCAGCUGUCGUGCGGCG [#1 Same State - Theophylline B Attempt #22 (HarryS)]", "apparent KD of MS2 coat protein": 195}
    ]},
    {"tested_on": "MS2 coat protein", "assay": "apparent KD of MS2 coat protein; higher = weaker reporter binding", "settings": "Eterna round: R107; input ligand: theophylline 20 uM", "protocol": "as §1", "units": {"apparent KD of MS2 coat protein": "nM"}, "values": [
      {"sequence": "CCGGCGCGAUUAUGGGUUUGCUUUUACGAUACCAGCCGCGUUCCGGGCCCUUGGCAGCGUGUAACAUGAGGAUCACCCAUGUUCA [theeternabot_exclusion_MS2_Theo_A_37]", "apparent KD of MS2 coat protein": 20.7},
      {"sequence": "UGACAUGAGGAUCACCCAUGUAUAACUGAAGGAGCGUCCAUAAGGACAGGUAGGUCGCGGAAUGAACAGAGUGCACGACAUGUUU [Arg A SS t1]", "apparent KD of MS2 coat protein": 17.7},
      {"sequence": "UUAUGAUGUUCCGAUACCAGCCAUGUAGUUCUAACUUAACAUGAGGAUCACCCAUGUACCGGCCCUUGGCAGCGGAUGUGGAUUA [#22Same State - Theophylline B]", "apparent KD of MS2 coat protein": 29.3},
      {"sequence": "AACAUGAGCACGGCCGCCACUCCAUGAACAUGAGGAUCACCCAUACACAUGAGGAUCACCCAUGUGAGGACCGGGUGUCCAUGUG [Exclusion Tryptophan B 2]", "apparent KD of MS2 coat protein": 18.7},
      {"sequence": "UAAAACAUGAGGAUCACCCAUGUAAUUGAUACCAGAGUGAUGAUCCUCCCUUGGCAGCAAAACGCUGAUUGAUUACAAUCAGCGA [Mat - Same State Theophlline A - Mod of Eli - D24]", "apparent KD of MS2 coat protein": 169},
      {"sequence": "UCAGAUGAGGCGGCCGCCACUCGCGGAUAACGAUAGAUUAACAUGAGGAUCACCCAUGUGUCAUGGAGGACCGGGCCCAUGACAU [kjmullin]", "apparent KD of MS2 coat protein": 42.3},
      {"sequence": "AAUCGCCUGGGUCGCAUCCUUGCUCCGGAUACCAGUCAAUAGUUGGACCCUUGGCAGCCGUAGACAUGAGGAUCACCCAUGUAUA [theeternabot_exclusion_MS2_Theo_A_42]", "apparent KD of MS2 coat protein": 85.5},
      {"sequence": "AUAUAUACAUGAGGAUCACCCAUGUUAUUUCGAGGACCGGUACGGCCGCCACUCGAUAGAGUAGAAGUAAAUUUUGUUACAUGUA [JR_SSTryptoA_Sub010]", "apparent KD of MS2 coat protein": 13.7},
      {"sequence": "UUAAUUAUAUAUUAUUUAAUAUUUACAGAAGGAGCGUGAUAAAACACAGGUAGGUCGCUGAAGGGAACAUGAGGAUCACCCAUGU [AstrosSSArgA#20]", "apparent KD of MS2 coat protein": 41.6},
      {"sequence": "AGAGUCUAGUCGGCCGCCACUCAUGUCCAAUGGACAUGAGGAUCACCCAUGUACCAAAGGUACAUGAGGACCGGGACUGGACUCA [Omei Tryp B SS C v4]", "apparent KD of MS2 coat protein": 209},
      {"sequence": "UUAAUCUAUGAAGAAAACUUUAUAGCAGAAGGAGCGUGAUAAAACACAGGUAGGUCGCUGAAGGGAACAUGAGGAUCACCCAUGU [AstrosSSArgA#19]", "apparent KD of MS2 coat protein": 36.7},
      {"sequence": "UAUAUAUAGAUGGAUACCAGCAGAGAAAACGUUUAUCCUAACAUGAGGAUCACCCAUGUAUGCCCUUGGCAGCUGUUUAUAUAUA [8.I]", "apparent KD of MS2 coat protein": 31.5},
      {"sequence": "GGACUAACCAGAAGGAGCGGCACAAAGCAGAAACUGCAUCCUCCGCACGAGGAUCACCCGUGUCAGGUAGGUCGCUGGUUAGUCG [ArgBX 28]", "apparent KD of MS2 coat protein": 70.6},
      {"sequence": "ACGUCAUGGAGAACGUGACGACUUAUCGAUACCAGCGAUUGAGAGCGCCCUUGGCAGCGAACAUGAGGAUCACCCAUGUCAAGGG [Same State - Theophylline A]", "apparent KD of MS2 coat protein": 36.5},
      {"sequence": "GCCUCCAGCCGAAGGAGCGCUAGAAGGUGACAUGAGGAUCACCCAUGUGUGUGAUGUGGCUAGCAGGUAGGUCGCGGAGGAGGUU [Exclusion - Arginine B (Freestyle 20)]", "apparent KD of MS2 coat protein": 133}
    ]}
  ]
}
